From publication PMC9477748, “Organizing structural principles of the IL-17 ligand–receptor axis” (Nature, 2022)
Substitutions are numbered along the chain they refer to. Names and notes keep the numbering of the source.

Columns and labels:
[1] = molecular target: site-specifically biotinylated IL-17RB, immobilized (human) (UniProt Q9NRM6); assay: SPR; Biacore T100; about 300 RU of site-specifically biotinylated IL-17RB immobilized on a Series S Sensor Chip SA; regeneration 2 M MgCl2; steady-state affinity analysis
[2] = molecular target: T1, IL-17RB (18-502) fused to the ALFA-tag, on HeLa cells (human) (UniProt Q9NRM6)
T1 sequence: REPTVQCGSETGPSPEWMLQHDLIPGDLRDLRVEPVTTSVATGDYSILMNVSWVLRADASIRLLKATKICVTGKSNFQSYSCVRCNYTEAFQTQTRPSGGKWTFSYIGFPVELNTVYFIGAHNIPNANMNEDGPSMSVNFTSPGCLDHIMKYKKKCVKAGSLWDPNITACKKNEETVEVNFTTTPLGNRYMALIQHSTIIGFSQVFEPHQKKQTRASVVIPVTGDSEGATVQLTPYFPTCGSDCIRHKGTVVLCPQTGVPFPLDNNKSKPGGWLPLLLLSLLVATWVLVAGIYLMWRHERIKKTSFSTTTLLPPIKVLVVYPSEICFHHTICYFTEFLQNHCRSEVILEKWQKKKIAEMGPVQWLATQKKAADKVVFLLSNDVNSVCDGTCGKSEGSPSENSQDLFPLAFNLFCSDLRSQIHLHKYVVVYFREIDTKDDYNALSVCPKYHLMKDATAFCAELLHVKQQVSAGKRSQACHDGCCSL

IL-17RB (1-288) = molecular target: T2, IL-17RB (1-288) (human, UniProt Q9NRM6 18-288); assay: cryo-EM structure; IL-25 and IL-17RB co-expressed in Expi293F GnTI- cells and co-purified; 2:2 complex (3.18 Å) and higher-order 6:6 complex (4.39 Å) from one sample; HBS 20/150 pH 7.4; conditions: both partners purified
T2 construct: signal peptide in the construct; IL-17 receptor B (IL-17RB), human, amino acids 1-288; Two constructs are named (C-terminal 3C-proteinC-8xHis in pVLAD6; C-terminal Avitag-6xHis in pD649); also called IL-17 receptor B; apo-IL-17RB
T2 sequence (looked up): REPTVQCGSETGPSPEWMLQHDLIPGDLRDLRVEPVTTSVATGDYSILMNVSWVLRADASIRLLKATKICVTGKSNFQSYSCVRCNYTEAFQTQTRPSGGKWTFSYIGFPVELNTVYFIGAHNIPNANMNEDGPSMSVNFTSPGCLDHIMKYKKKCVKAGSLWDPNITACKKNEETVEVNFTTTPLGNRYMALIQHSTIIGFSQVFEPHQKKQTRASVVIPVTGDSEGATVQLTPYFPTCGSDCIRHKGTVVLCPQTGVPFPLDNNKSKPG

IL-17RA (1-317) (from UniProt Q96F46 33-317) (receptor)
Kd [1]: 13.8 µM

B1: IL-25 Y92A (ligand)
chain: THTYSHWPSCCPSKGQDTSEELLRWSTVPVPPLEPARPNRHPESCRASEDGPLNSRAISPWRAELDRDLNRLPQDLYHARCLCPHCVSLQTGSHMDPRGNSELLYHNQTVFYRRPCHGEKGTHKGYCLERRLYRVSLACVCVRPRVMG
NF-κB reporter (SEAP) HEK293 cells expressing IL-17RA, ACT1 and endogenous IL-17RB, varying concentrations of IL-25 mutant: EC50 shift relative to WT IL-25 [2]: > 3 log-fold

B2: IL-25 (amino acids 30-177) (ligand, human, UniProt Q9H293 30-177, looked up)
chain: B1 chain with A63Y
notes: IL-25 (IL-17E), human, amino acids 30-177; Two constructs are named (Igk signal peptide with C-terminal 3C-cleavable Avitag-6xHis in pEG BacMam; HA signal peptide with C-terminal Avitag-6xHis in a lentiviral vector); also called IL-17E; WT IL-25
binding result (IL-17RB (1-288)): binds
